# Test results from US20070185311A1 (EPIX MEDICAL INC A DELAWARE, published 2007).
# Starred links: 1 amine or outer side, 2 acyl side, 3 side chain; linkers in the order of their positions; H or OH if unused. Positions of bridges follow the written chain, without caps; N, C: chain ends. Non-standard residues stand in square brackets, D forms with d. Primed or numbered codes have the meaning given here. No end group written: not given here. Tyr(3-NO2) = N[C@@H](Cc1ccc(O)c([N+](=O)[O-])c1)C(=O)O; Phe(4-OMe) = COc1ccc(C[C@H](N[*:1])C(=O)[*:2])cc1; Phe(3-CF3) = N[C@@H](Cc1cccc(C(F)(F)F)c1)C(=O)O; Phe(4-CF3) = N[C@@H](Cc1ccc(C(F)(F)F)cc1)C(=O)O; Phe(F5) = N[C@@H](Cc1c(F)c(F)c(F)c(F)c1F)C(=O)O; Bpa = N[C@@H](Cc1ccc(C(=O)c2ccccc2)cc1)C(=O)O; Phe(4-CH2NH2) = NCc1ccc(C[C@H](N)C(=O)O)cc1; Tyr(3-Cl) = N[C@@H](Cc1ccc(O)c(Cl)c1)C(=O)O; Bip = N[C@@H](Cc1ccc(-c2ccccc2)cc1)C(=O)O; Tyr(3-F) = N[C@@H](Cc1ccc(O)c(F)c1)C(=O)O; Tyr(3-I) = N[C@@H](Cc1ccc(O)c(I)c1)C(=O)O; Phe(3-OMe) = COc1cccc(C[C@H](N)C(=O)O)c1; Phe(4-Br) = N[C@@H](Cc1ccc(Br)cc1)C(=O)O; Phe(4-CN) = N#Cc1ccc(C[C@H](N)C(=O)O)cc1; Phe(4-NH2) = Nc1ccc(C[C@H](N)C(=O)O)cc1; Phe(2-OMe) = COc1ccccc1C[C@H](N)C(=O)O; Phe(3-Me) = Cc1cccc(C[C@H](N)C(=O)O)c1; Phe(4-I) = N[C@@H](Cc1ccc(I)cc1)C(=O)O; Phe(4-Me) = Cc1ccc(C[C@H](N)C(=O)O)cc1; Hyp = O=C(O)[C@@H]1C[C@@H](O)CN1; hPhe = N[C@@H](CCc1ccccc1)C(=O)O; Phe(4-Et)′ = not defined here; Tle = CC(C)(C)[C@H](N)C(=O)O; Tyr(2-F)′ = not defined here; Nle = CCCC[C@H](N)C(=O)O; nTyr = not defined here
# Molecular target: DD(E) fragment of fibrin
# Test: affinity to DD(E) fragment of fibrin
row,Binder,Kd [nM]
1,[Phe(4-I)]HC[Hyp][Tyr(3-I)]DLCHI (disulfide 3-8 (inferred)) [F(4-I)-H-C-Hyp-Y(3-I)-D-L-C-H-I],< 100
2,[Phe(4-Br)]HC[Hyp][Tyr(3-I)]DLCHI (disulfide 3-8 (inferred)) [F(4-Br)-H-C-Hyp-Y(3-I)-D-L-C-H-I],< 100
3,[Phe(4-Me)]HC[Hyp][Tyr(3-I)]DLCHI (disulfide 3-8 (inferred)) [F(4-Me)-H-C-Hyp-Y(3-I)-D-L-C-H-I],< 100
4,[Phe(4-CF3)]HC[Hyp][Tyr(3-I)]DLCHI (disulfide 3-8 (inferred)) [F(4-CF3)-H-C-Hyp-Y(3-I)-D-L-C-H-I],< 100
5,[Phe(4-CN)]HC[Hyp][Tyr(3-I)]DLCHI (disulfide 3-8 (inferred)) [F(4-CN)-H-C-Hyp-Y(3-I)-D-L-C-H-I],< 100
6,[Phe(4-OMe)]HC[Hyp][Tyr(3-I)]DLCH[Bpa] (disulfide 3-8 (inferred)) [F(4-OMe)-H-C-Hyp-Y(3-I)-D-L-C-H-Bpa],< 100
7,[Tyr(3-NO2)]HC[Hyp][Tyr(3-I)]DLCHI (disulfide 3-8 (inferred)) [Y(3-NO2)-H-C-Hyp-Y(3-I)-D-L-C-H-I],< 100
8,[Tyr(2-F)′]HC[Hyp][Tyr(3-I)]DLCHI (disulfide 3-8 (inferred)) [Y(2-F)-H-C-Hyp-Y(3-I)-D-L-C-H-I],< 100
9,[Phe(4-CH2NH2)]HC[Hyp][Tyr(3-I)]DLCHI (disulfide 3-8 (inferred)) [F(4-CH2NH2)-H-C-Hyp-Y(3-I)-D-L-C-H-I],< 100
10,[Phe(4-NH2)]HC[Hyp][Tyr(3-I)]DLCHI (disulfide 3-8 (inferred)) [F(4-NH2)-H-C-Hyp-Y(3-I)-D-L-C-H-I],< 100
11,[Phe(34-F2)]HC[Hyp][Tyr(3-I)]DLCHI (disulfide 3-8 (inferred)) [F(34-F2)-H-C-Hyp-Y(3-I)-D-L-C-H-I],< 100
12,[DopaMe2]HC[Hyp][Tyr(3-I)]DLCHI (disulfide 3-8 (inferred)) [DopaMe2-H-C-Hyp-Y(3-I)-D-L-C-H-I],< 100
13,[Phe(2-OMe)]HC[Hyp][Tyr(3-I)]DLCHI (disulfide 3-8 (inferred)) [F(2-OMe)-H-C-Hyp-Y(3-I)-D-L-C-H-I],< 100
14,[Phe(3-Me)]HC[Hyp][Tyr(3-I)]DLCHI (disulfide 3-8 (inferred)) [F(3-Me)-H-C-Hyp-Y(3-I)-D-L-C-H-I],< 100
15,FHC[Hyp][Tyr(3-I)]DLCHI (disulfide 3-8 (inferred)) [F-H-C-Hyp-Y(3-I)-D-L-C-H-I],< 100
16,FHC[Hyp][Tyr(3-I)]DLCH[Phe(3-CF3)] (disulfide 3-8 (inferred)) [F-H-C-Hyp-Y(3-I)-D-L-C-H-F(3-CF3)],< 100
17,FHC[Hyp][Tyr(3-I)]DLCH[hPhe] (disulfide 3-8 (inferred)) [F-H-C-Hyp-Y(3-I)-D-L-C-H-Hfe],< 100
18,[Phe(3-CF3)]HC[Hyp][Tyr(3-I)]DLCHI (disulfide 3-8 (inferred)) [F(3-CF3)-H-C-Hyp-Y(3-I)-D-L-C-H-I],< 100
19,[Phe(3-OMe)]HC[Hyp][Tyr(3-I)]DLCHI (disulfide 3-8 (inferred)) [F(3-OMe)-H-C-Hyp-Y(3-I)-D-L-C-H-I],< 100

row,Binder,Kd [nM]
1,[hPhe]HC[Hyp][Tyr(3-I)]DLCHI (disulfide 3-8 (inferred)) [Hfe-H-C-Hyp-Y(3-I)-D-L-C-H-I],< 100
2,[nTyr]HC[Hyp][Tyr(3-I)]DLCHI (disulfide 3-8 (inferred); reading uncertain) [nTyr-H-C-Hyp-Y(3-I)-D-L-C-H-I],< 100
3,WEC[Hyp][Tyr(3-Cl)]GLCWIQ (disulfide 3-8 (inferred)) [W-E-C-Hyp-Y(3-Cl)-G-L-C-W-I-Q],< 100
4,FHC[Hyp][Tyr(3-Cl)]DLCHIL (disulfide 3-8 (inferred)) [F-H-C-Hyp-Y(3-Cl)-D-L-C-H-I-L],< 100
5,[Phe(4-OMe)][His(Bzl)]C[Hyp][Tyr(3-I)]DLCHI (disulfide 3-8 (inferred)) [F(4-OMe)-H(Bzl)-C-Hyp-Y(3-I)-D-L-C-H-I],< 100
6,FHC[Hyp][Tyr(3-I)]DLCH[Nle] (disulfide 3-8 (inferred); not fully specified) [F-H-C-Hyp-Y(3-I)-D-L-C-H-Nle],< 100
7,FHC[Hyp][Tyr(3-I)]DLCH[Tle] (disulfide 3-8 (inferred)) [F-H-C-Hyp-Y(3-I)-D-L-C-H-Tle],< 100
8,FHC[Hyp][Tyr(3-I)]DLCH[Bpa] (disulfide 3-8 (inferred)) [F-H-C-Hyp-Y(3-I)-D-L-C-H-Bpa],< 100
9,FHC[Hyp][Tyr(3-I)]DLCH[Phe(4-CF3)] (disulfide 3-8 (inferred)) [F-H-C-Hyp-Y(3-I)-D-L-C-H-F(4-CF3)],< 100
10,FHC[Hyp][Tyr(3-I)]DLCH[Bip] (disulfide 3-8 (inferred)) [F-H-C-Hyp-Y(3-I)-D-L-C-H-Bip],< 100
11,FHC[Hyp][Tyr(3-I)]DLCH[Phe(4-Et)′] (disulfide 3-8 (inferred)) [F-H-C-Hyp-Y(3-I)-D-L-C-H-F(4-Et)],< 100
12,FHC[Hyp][Tyr(3-I)]DLCH[Phe(4-OMe)] (disulfide 3-8 (inferred)) [F-H-C-Hyp-Y(3-I)-D-L-C-H-F(4-OMe)],< 100
13,FHC[Hyp][Tyr(3-I)]DLCH[Phe(3-OMe)] (disulfide 3-8 (inferred)) [F-H-C-Hyp-Y(3-I)-D-L-C-H-F(3-OMe)],< 100
14,[Phe(F5)]HC[Hyp][Tyr(3-I)]DLCHI (disulfide 3-8 (inferred)) [F(F5)-H-C-Hyp-Y(3-I)-D-L-C-H-I],< 100
15,FHC[Hyp][Tyr(3-F)]DLCHIL (disulfide 3-8 (inferred)) [F-H-C-Hyp-Y(3-F)-D-L-C-H-I-L],< 100
16,FHCP[Tyr(3-Cl)]DLCHIL (disulfide 3-8 (inferred)) [F-H-C-P-Y(3-Cl)-D-L-C-H-I-L],< 200
17,[Tyr(3-Cl)]HC[Hyp][Tyr(3-I)]DLCHI (disulfide 3-8 (inferred)) [Y(3-Cl)-H-C-Hyp-Y(3-I)-D-L-C-H-I],< 100
18,[Tyr(26-Me)]HC[Hyp][Tyr(3-I)]DLCHI (disulfide 3-8 (inferred)) [Y(26-Me)-H-C-Hyp-Y(3-I)-D-L-C-H-I],< 200
